Kd data for two molecules are collected here from publication PMC9596381 (2022).

Like-named read-outs stand apart in the source and are kept apart here.

Assay [1] deals with T1, human glypican-3 core domain, residues 32-483 (hGPC3^core) (human, UniProt P51654 32-483, N-linked glycans at N124 and N241). The assay can be described thus: SPR.
For assay [2], the target named is T1, human glypican-3 core domain, residues …. Kind of assay: SPR. The source holds these as a separate data set.

T1 sequence (P51654 32-483): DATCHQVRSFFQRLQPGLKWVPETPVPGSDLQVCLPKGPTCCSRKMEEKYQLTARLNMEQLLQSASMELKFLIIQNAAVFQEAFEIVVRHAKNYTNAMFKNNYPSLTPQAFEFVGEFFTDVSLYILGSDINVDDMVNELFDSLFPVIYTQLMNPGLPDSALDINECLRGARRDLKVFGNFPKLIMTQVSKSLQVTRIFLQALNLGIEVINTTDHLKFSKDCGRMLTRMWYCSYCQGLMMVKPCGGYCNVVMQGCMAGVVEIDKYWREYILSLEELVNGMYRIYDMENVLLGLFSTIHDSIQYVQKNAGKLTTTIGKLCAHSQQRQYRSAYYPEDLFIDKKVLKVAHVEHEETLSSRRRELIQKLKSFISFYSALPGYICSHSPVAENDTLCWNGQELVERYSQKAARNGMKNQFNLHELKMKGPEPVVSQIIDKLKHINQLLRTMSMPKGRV

B1: Rattus norvegicus Unc5D residues 32-307 (rUnc5D^IgIgTSP) (domain or fragment)
chain: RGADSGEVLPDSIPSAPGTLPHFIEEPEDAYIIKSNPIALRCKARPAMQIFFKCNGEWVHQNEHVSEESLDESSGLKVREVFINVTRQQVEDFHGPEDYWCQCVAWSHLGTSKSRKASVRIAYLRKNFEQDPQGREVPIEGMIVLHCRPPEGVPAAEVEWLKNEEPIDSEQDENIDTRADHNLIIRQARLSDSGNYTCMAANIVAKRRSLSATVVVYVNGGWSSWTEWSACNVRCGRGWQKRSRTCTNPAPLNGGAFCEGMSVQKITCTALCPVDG
modifications: C-mannosylated tryptophans W253 and W256 (TSP1)
In assay [1], B1 came in with a Kd of 265 nM.

B2: mouse Unc5C ectodomain (domain or fragment)
chain: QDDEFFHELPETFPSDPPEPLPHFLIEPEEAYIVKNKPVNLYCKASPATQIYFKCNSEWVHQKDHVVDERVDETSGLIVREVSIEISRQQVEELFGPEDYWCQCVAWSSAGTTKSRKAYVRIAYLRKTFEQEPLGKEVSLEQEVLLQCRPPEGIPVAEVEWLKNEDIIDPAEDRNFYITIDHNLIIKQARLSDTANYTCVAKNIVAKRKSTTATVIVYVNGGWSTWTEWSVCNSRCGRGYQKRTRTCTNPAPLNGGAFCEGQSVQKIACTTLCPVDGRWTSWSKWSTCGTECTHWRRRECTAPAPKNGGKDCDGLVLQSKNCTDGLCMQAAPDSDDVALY
modifications: biotin on the Avi-tag
With B2, the affinity in assay [2], expressed as Kd, was 3.3 µM.
